US8088617B2, “Antibodies that bind the glutamate ligand binding region of Notch1” (OncoMed Pharmaceuticals, Inc., priority 2007, dated 2012)
Entries after “also recorded” stand apart in the source; their conditions may differ.

B1: 90R21: affinity matured anti-Notch1 ligand binding domain antibody; heavy chain SEQ ID NO: 1, light chain SEQ ID NO: 5; ATCC PTA-8909 (antibody)
heavy: MKHLWFFLLLVAAPRWVLSEVQLLESGGGLVQPGGSLRLSCAASGFTFSNYGMSWVRQAPGKGLEWVSSISGYGSNTYYADSVKGRFTISRDNSKNTLYLQMNSLRAEDTAVYYCARISQQAVWGQGTLVTVSSASTKGPSVFPLAPCSRSTSESTAALGCLVKDYFPEPVTVSWNSGALTSGVHTFPAVLQSSGLYSLSSVVTVPSSNFGTQTYTCNVDHKPSNTKVDKTVERKCCVECPPCPAPPVAGPSVFLFPPKPKDTLMISRTPEVTCVVVDVSHEDPEVQFNWYVDGVEVHNAKTKPREEQFNSTFRVVSVLTVVHQDWLNGKEYKCKVSNKGLPAPIEKTISKTKGQPREPQVYTLPPSREEMTKNQVSLTCLVKGFYPSDIAVEWESNGQPENNYKTTPPMLDSDGSFFLYSKLTVDKSRWQQGNVFSCSVMHEALHNHYTQKSLSLSPGK
light: MAWALLLLTLLTQGTGSWAQSALTQPASVSGSPGQSITISCTGTSSDIGGYQYVSWYQQHPGKAPKLMIYYVSNRPSGVSNRFSGSKSGNTASLTISGLQAEDEADYYCQSADSSSWVFGGGTKLTVLGQPKAAPSVTLFPPSSEELQANKATLVCLISDFYPGAVTVAWKADSSPVKAGVETTTPSKQSNNKYAASSYLSLTPEQWKSHRSYSCQVTHEGSTVEKTVAPTECS
modifications: Synthetic 90R21 Heavy chain; Synthetic 90R21 Light chain
B2: 122R5: lead anti-Notch3 fAb; heavy chain SEQ ID NO: 9, light chain SEQ ID NO: 13; ATCC PTA-8908 (antibody)
heavy: MKHLWFFLLLVAAPRWVLSQVQLVESGGGLVQPGGSLRLSCAASGFTFSDNAIHWVRQAPGKGLEWVSAISSYGSGTYYADSVKGRFTISRDNSKNTLYLQMNSLRAEDTAVYYCARPGFQFSFTFMDIWGQGTLVTVSSASTKGPSVFPLAPCSRSTSESTAALGCLVKDYFPEPVTVSWNSGALTSGVHTFPAVLQSSGLYSLSSVVTVPSSNFGTQTYTCNVDHKPSNTKVDKTVERKCCVECPPCPAPPVAGPSVFLFPPKPKDTLMISRTPEVTCVVVDVSHEDPEVQFNWYVDGVEVHNAKTKPREEQFNSTFRVVSVLTVVHQDWLNGKEYKCKVSNKGLPAPIEKTISKTKGQPREPQVYTLPPSREEMTKNQVSLTCLVKGFYPSDIAVEWESNGQPENNYKTTPPMLDSDGSFFLYSKLTVDKSRWQQGNVFSCSVMHEALHNHYTQKSLSLSPGK
light: MAWALLLLTLLTQGTGSWADIELTQPPSVSVAPGQTARISCSGDALGSKYASWYQQKPGQAPVLVIYDDKNRPSGIPERFSGSNSGNTATLTISGTQAEDEADYYCQSWDGKSKVVFGGGTKLTVLGQPKAAPSVTLFPPSSEELQANKATLVCLISDFYPGAVTVAWKADSSPVKAGVETTTPSKQSNNKYAASSYLSLTPEQWKSHRSYSCQVTHEGSTVEKTVAPTECS
modifications: Synthetic 122R5 Heavy chain; Synthetic 122R5 Light chain

What was measured:
[1] = system: Notch signaling (ICD formation) in Hela cells stably expressing Notch1; assay: Western blot of Notch ICD formation in response to DLL4; type: cell-based; settings: 10 ug/ml soluble DLL4-Fc; western blot of cell lysates
Text: FIG. 8: Monoclonal Antibodies to the Notch Ligand Binding Domain Inhibit Notch Signaling. A) A schematic of the Notch signaling mechanism. Upon ligand binding, gamma secretase activity cleaves the Notch receptor and liberates the intracellular domain (ICD) to activate downstream Notch signaling. B) Monoclonal antibodies against the Notch ligand binding domain inhibit Notch signaling in response to Notch ligand DLL4.
In certain embodiments, the ability of antibodies against a Notch ligand binding region to block Notch signaling was measured by inhibition of Notch cleavage in response to ligand stimulation. Hela cells stably expressing Notch1 were cultured in DMEM supplemented with antibiotics and 10% FCS. Cells were then incubated in the presence of 10 ug/ml soluble DLL4-Fc protein in the presence or absence of monoclonal antibodies against a Notch ligand binding domain, control antibodies, antibodies against Notch1 binding outside the ligand binding region (13M57), and gamma secretase inhibitor DBZ. Cells were harvested and cell lysates analyzed by western blot using an antibody that recognizes the cleaved intracellular domain (ICD) of Notch generated in response to ligand induced signaling (FIG. 8A).

human Notch1 = target: T1, human Notch1 (Homo sapiens, UniProt P46531); assay: FACS: inhibition of DLL4 binding to Notch1 on stably transfected HEK293 cells; settings: soluble DLL4-fc, increasing concentrations of antibody
T1 construct: expressed in transfected cells
T1 sequence (P46531 19-2555): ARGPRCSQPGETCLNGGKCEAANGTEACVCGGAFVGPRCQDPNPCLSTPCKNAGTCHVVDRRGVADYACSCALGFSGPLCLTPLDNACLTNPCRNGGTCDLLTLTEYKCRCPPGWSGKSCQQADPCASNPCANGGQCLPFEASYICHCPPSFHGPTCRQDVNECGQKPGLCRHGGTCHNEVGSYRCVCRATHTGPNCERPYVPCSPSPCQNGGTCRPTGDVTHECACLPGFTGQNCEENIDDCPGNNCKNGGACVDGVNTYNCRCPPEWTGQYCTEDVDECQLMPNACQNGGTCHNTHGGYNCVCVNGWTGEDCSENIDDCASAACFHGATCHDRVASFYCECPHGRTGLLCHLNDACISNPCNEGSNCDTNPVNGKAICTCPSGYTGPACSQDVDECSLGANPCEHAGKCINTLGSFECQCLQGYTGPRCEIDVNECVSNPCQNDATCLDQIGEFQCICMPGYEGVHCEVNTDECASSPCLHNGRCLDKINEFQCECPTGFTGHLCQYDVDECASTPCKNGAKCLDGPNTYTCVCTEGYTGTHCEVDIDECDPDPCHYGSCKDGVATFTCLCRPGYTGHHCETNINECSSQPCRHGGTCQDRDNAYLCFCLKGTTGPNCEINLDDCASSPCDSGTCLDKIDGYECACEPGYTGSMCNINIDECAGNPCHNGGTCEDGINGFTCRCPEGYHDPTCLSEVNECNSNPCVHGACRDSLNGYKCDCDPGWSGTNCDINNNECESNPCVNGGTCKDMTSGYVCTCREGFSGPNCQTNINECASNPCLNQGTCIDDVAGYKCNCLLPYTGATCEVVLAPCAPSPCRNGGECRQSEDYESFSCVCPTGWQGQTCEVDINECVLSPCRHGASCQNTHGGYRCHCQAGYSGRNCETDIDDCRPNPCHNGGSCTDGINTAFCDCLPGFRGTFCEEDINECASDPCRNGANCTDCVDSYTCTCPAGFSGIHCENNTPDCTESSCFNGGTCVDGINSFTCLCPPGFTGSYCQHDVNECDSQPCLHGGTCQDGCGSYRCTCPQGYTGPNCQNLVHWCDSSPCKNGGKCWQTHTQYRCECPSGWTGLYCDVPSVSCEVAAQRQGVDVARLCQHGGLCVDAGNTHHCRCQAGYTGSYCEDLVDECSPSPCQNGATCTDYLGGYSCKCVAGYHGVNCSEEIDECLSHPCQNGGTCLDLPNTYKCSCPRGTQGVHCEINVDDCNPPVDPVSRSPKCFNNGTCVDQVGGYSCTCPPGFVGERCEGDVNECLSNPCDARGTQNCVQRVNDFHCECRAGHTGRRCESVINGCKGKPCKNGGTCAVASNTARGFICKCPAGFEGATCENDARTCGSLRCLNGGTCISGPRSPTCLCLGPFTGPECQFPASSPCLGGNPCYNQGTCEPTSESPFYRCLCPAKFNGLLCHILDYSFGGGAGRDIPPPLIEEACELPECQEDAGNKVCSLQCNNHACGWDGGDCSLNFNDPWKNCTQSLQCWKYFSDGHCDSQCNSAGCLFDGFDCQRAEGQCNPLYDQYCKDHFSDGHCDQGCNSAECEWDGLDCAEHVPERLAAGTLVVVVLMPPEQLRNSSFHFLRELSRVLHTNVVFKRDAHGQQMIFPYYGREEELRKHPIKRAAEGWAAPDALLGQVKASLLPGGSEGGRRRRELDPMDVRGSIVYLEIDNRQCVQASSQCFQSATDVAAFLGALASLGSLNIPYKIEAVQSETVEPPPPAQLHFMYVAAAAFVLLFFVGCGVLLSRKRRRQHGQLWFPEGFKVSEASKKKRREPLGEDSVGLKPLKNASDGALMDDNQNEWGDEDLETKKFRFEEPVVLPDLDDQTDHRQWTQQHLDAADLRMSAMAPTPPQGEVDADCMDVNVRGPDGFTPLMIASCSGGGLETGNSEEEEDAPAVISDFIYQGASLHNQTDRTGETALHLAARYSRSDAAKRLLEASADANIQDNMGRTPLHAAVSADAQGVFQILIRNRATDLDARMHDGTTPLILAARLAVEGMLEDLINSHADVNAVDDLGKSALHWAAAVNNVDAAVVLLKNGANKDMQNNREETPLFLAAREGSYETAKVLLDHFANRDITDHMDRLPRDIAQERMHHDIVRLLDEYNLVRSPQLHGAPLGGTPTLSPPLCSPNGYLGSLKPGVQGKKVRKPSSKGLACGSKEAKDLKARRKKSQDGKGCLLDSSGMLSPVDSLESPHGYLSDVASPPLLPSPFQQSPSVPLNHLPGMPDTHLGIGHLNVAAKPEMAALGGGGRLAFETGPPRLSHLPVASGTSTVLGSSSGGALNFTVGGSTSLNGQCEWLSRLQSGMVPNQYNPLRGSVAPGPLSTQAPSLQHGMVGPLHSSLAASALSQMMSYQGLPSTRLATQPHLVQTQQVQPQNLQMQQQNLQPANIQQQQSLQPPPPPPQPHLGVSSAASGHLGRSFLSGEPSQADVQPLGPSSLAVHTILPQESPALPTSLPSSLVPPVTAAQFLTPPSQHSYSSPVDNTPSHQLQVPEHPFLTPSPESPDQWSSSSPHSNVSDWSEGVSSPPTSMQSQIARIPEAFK
Method: FIG. 6: Affinity Matured mAbs that Bind the Ligand Binding Domain of Notch1 Inhibit Binding of DLL4 to Notch1. […] Three affinity matured variants were tested for their ability to block binding between DLL4 and Notch1 (y-axis) in the presence of increasing concentrations of antibody (x-axis).
The ability of antibodies specific for the critical ligand binding region to inhibit binding of Notch ligands to Notch was evaluated. In certain embodiments, the ability of a panel of affinity matured monoclonal antibodies specific for the Notch1 ligand binding region to inhibit binding of DLL4 to Notch1 was determined by FACS analysis (FIG. 6). HEK293 cells stably transfected with human Notch1 were incubated with soluble DLL4-fc fusion protein in the presence of increasing concentrations of 90R21, 90R22, and 90R29 antibodies. […] HEK293 cells co-transfected with GFP and full length Notch3 were incubated with a soluble human Jag1-fc fusion protein in the absence (No Ab) or presence (122R03E1) of the fAb.

PE13 breast tumor cells = assay: PE13 breast tumor xenograft growth; type: in vivo, NOD/SCID mice
Method: (§1) FIG. 9: Monoclonal Antibodies to the Notch Ligand Binding Domain Inhibit Tumor Growth In Vivo. NOD/SCID mice were injected with dissociated PE13 (A) or T3 (B) breast tumor cells and treated with either control antibodies (black squares); anti-Notch ligand binding region antibodies 90R21 (open circles); control antibodies in combination with Paclitaxel (black triangles); or 90R21 antibodies in combination with Paclitaxel (open triangles).
(§2) In certain embodiments, tumor cells from a patient sample (solid tumor biopsy or pleural effusion) that have been passaged as a xenograft in mice were prepared for repassaging into experimental animals. Tumor tissue was removed under sterile conditions, cut up into small pieces, minced completely using sterile blades, and single cell suspensions obtained by enzymatic digestion and mechanical disruption. Specifically, pleural effusion cells or the resulting tumor pieces were mixed with ultra-pure collagenase III in culture medium (200-250 units of collagenase per mL) and incubated at 37° C. for 3-4 hours with pipetting up and down through a 10-mL pipette every 15-20 minutes. Digested cells were filtered through a […] nylon mesh, washed with RPMI/20% FBS, and washed twice with HBSS. […]
(§3) In certain embodiments, anti-Notch ligand binding region antibodies were analyzed for their ability to reduce the growth of breast tumors in vivo. […]

T3 breast tumor cells = assay: T3 breast tumor xenograft growth; type: in vivo, NOD/SCID mice; settings: estrogen pellet
Method: as §1, §2, §3

[2] = target: T2, wild type full length Notch1 (Homo sapiens, UniProt P46531); assay: FACS binding to HEK293 cells co-transfected with GFP and wild type Notch1; settings: HEK293 cells co-transfected with GFP
T2 construct: co-transfected with GFP and either wild type full length Notch1; expressed in transfected cells; host or cells: HEK293
T2 sequence (P46531 19-2555): as above
Text: (§4) FIG. 4: Identification of a fAb that Binds a Critical Ligand Binding Domain of Notch1. FACS analysis of HEK 293 cells co-transfected with GFP and either wild type Notch or Notch1 E424Q using a human fAb identified by phage display as binding the ligand binding domain of Notch1. GFP expression marked cells expressing recombinant Notch1 protein (x-axis) and binding to Notch1 is indicated along the y-axis.
(§5) FIG. 5: Identification of an Antibody that Binds the Ligand Binding Region of Multiple Notch Receptors. FACS analysis of HEK 293 cells co-transfected with GFP and wild type Notch3, Notch1 or Notch1 E424Q using a human fAb identified by phage display as binding the ligand binding domain of Notch3. GFP expression marked transfected cells expressing recombinant Notch protein (x-axis). Binding of fAb is indicated on the y-axis.
(§6) To confirm that the lead Notch1 fAb was specific for the ligand binding region of Notch1, HEK293 cells were co-transfected with GFP and either wild type full length Notch1 or Notch1 containing the amino acid substitution E424Q.

Notch1 E424Q = target: T3, Notch1 E424Q (Homo sapiens, UniProt P46531, E424Q); assay: FACS binding to HEK293 cells co-transfected with GFP and Notch1 E424Q; settings: HEK293 cells co-transfected with GFP
T3 construct: Full-length wild type Notch1 or Notch1 E424Q was co-transfected with GFP into HEK 293 cells; expressed in transfected cells; host or cells: HEK293
Text: as §4, §5, §6

human Notch3 = human Notch3 (Homo sapiens, UniProt Q9UM47); assay: fAb binding to human Notch3 (phage display selection)
Sequence of human Notch3 (Q9UM47 40-2321): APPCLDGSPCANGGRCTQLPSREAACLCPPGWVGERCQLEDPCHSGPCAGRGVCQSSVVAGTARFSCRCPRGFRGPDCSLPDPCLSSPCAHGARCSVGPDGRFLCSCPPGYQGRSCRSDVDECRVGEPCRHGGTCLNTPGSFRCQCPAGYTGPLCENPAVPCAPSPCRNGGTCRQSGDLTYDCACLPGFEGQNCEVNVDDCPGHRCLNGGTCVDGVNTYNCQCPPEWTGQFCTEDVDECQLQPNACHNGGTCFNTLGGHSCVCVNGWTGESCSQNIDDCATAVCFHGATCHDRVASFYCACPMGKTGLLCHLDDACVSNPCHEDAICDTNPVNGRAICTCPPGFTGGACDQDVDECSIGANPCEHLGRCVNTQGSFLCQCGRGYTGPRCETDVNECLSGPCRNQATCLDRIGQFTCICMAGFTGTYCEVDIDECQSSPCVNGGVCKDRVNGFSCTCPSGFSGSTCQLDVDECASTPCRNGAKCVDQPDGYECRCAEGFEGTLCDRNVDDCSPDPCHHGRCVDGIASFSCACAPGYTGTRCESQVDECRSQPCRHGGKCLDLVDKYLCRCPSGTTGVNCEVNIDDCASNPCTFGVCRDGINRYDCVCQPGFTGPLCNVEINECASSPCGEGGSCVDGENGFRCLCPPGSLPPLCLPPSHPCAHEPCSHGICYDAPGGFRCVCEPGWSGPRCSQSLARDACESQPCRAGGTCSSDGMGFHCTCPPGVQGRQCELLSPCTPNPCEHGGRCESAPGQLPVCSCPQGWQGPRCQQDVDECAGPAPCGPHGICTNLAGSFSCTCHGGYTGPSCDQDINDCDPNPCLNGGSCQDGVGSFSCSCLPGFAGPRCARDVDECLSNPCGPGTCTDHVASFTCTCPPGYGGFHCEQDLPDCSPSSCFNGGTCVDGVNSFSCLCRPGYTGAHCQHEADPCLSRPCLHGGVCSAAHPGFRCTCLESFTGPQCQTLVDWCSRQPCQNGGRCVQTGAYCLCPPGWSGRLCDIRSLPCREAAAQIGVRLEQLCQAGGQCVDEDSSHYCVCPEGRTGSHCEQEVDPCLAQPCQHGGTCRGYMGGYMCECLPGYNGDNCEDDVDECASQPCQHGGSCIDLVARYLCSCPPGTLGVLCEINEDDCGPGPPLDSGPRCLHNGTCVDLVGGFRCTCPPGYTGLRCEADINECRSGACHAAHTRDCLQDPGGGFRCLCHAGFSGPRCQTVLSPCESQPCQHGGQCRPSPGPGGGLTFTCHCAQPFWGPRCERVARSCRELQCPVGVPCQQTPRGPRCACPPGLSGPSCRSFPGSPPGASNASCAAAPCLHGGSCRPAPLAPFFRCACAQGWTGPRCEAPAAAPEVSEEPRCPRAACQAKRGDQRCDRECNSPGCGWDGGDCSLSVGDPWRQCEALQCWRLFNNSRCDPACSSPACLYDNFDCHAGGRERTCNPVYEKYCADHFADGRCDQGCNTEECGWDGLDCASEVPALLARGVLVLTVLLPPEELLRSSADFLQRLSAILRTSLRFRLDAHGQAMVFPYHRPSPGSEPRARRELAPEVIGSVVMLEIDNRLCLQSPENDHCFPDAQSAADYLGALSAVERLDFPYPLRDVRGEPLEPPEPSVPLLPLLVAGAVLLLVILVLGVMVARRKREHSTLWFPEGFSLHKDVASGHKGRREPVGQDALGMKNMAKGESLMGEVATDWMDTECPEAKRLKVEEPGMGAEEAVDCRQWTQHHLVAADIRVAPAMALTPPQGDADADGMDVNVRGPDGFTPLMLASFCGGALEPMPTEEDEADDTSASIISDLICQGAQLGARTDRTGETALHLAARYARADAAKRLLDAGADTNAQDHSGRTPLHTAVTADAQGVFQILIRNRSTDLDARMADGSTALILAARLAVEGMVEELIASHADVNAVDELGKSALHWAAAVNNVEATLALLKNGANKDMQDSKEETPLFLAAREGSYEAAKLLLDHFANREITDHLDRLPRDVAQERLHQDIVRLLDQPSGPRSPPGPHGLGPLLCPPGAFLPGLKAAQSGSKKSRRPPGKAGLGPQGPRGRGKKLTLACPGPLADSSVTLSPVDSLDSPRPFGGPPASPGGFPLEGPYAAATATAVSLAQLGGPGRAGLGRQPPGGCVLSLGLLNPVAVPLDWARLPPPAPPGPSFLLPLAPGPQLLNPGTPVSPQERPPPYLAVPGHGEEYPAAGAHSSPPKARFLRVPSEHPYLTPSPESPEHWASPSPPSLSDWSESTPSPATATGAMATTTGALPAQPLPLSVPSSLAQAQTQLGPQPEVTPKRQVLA
Method: (§7) In certain embodiments, phage display identified a specific fAb that binds to the ligand binding domain within Notch1. In certain embodiments, phage display identified a specific fAb that binds to the ligand binding domain within Notch3. In certain embodiments, a fAb was discovered that bound to the ligand binding domain of both Notch3 and Notch1. In certain embodiments, 2×10^13 Fab displaying phage particles from a human fAb phage library were incubated with cells expressing full length recombinant protein or passively immobilized recombinant protein fragments, non-specific phage were washed off, and then specific phage were eluted with either low pH (cells) or DTT (recombinant protein). The eluted output was used to infect TG1 F+ bacteria, rescued with helper phage, and then Fab display induced with IPTG (0.25 mM). The output of this rescued round one served as the starting point for further selections in rounds two, three, four, and five as indicated in Table 1.
(§8) For Notch3, the phage display library was panned for binding to the analogous epitope within Notch3 (comprising amino acid 403 of Notch3) using similar approach for as Notch1. […] The 122R5 heavy chain comprises the amino acids of SEQ ID NO: 9, including CDR1 (SEQ ID NO: 10); CDR2 (SEQ ID NO: 11) and CDR3 (SEQ ID NO: 12). […]

murine Notch3 = murine Notch3 (Mus musculus, UniProt Q61982); assay: fAb binding to murine Notch3 (phage display selection)
Method: as §7, §8

Notch3 (E403Q) = Notch3 (E403Q) (Homo sapiens, UniProt Q9UM47, E403Q); assay: fAb binding to Notch3 with E403Q substitution
Sequence of Notch3 (E403Q) (Q9UM47 40-2321 E403Q): as the sequence (Q9UM47 40-2321) above, with E364Q counted along it
Text: For Notch3, the phage display library was panned for binding to the analogous epitope within Notch3 (comprising amino acid 403 of Notch3) using similar approach for as Notch1. […] The 122R5 heavy chain comprises the amino acids of SEQ ID NO: 9, including CDR1 (SEQ ID NO: 10); CDR2 (SEQ ID NO: 11) and CDR3 (SEQ ID NO: 12). The 122R5 light chain comprises the amino acids of SEQ ID NO: 13, including CDR1 (SEQ ID NO: 14); CDR2 (SEQ ID NO: 15) and CDR3 (SEQ ID NO: 16).

[3] = antibody 10 mg/kg twice a week in combination with Paclitaxel 10 mg/kg once a week
[4] = antibody alone 10 mg/kg twice a week, vs control antibody, after 55 days

| Molecule | formation of Notch ICD in response to DLL4 [1] | blocking of binding between DLL4 and Notch1 (human Notch1) | tumor growth, PE13, combination (PE13 breast tumor cells; [3]) | tumor growth, PE13 (PE13 breast tumor cells; [4]) | tumor growth, T3, combination (T3 breast tumor cells; [3]) | tumor growth, T3 (T3 breast tumor cells; [4]) | binding to cells expressing wild type Notch1 [2] | binding to cells expressing Notch1 E424Q (Notch1 E424Q) | binding to human Notch3 (human Notch3) | binding to murine Notch3 (murine Notch3) | binding to Notch3 (E403Q) (Notch3 (E403Q)) |
| --- | --- | --- | --- | --- | --- | --- | --- | --- | --- | --- | --- |
| C[C@H](NC(=O)Cc1cc(F)cc(F)c1)C(=O)N[C@@H]1C(=O)N(C)c2ccccc2-c2ccccc21 [DBZ, reference compound] | prevented formation of Notch ICD; also recorded: blocked this signaling event |  |  |  |  |  |  |  |  |  |  |
| B1 | prevented formation of Notch ICD; also recorded: inhibited ICD formation | blocked the binding; also recorded: disrupted ligand binding | virtually eliminated tumor growth | significantly reduced tumor growth; also recorded: reduced tumor growth significantly | virtually eliminated T3 tumor growth | significantly reduced tumor growth; also recorded: reduced tumor growth significantly |  |  |  |  |  |
| B2 |  |  |  |  |  |  | ability to bind to Notch1 | not to Notch1(E424Q) | bound | bound | not Notch3 (E403Q) |
